Patent US20080113905A1 (Eli Lilly, published 2008)
Groups on a side chain read outwards from the residue. No end group written: not given here. *: point of attachment. DSPE = distearoyl phosphatidyl ethanolamine, CCCCCCCCCCCCCCCCCC(=O)OC[C@H](COP(=O)(O)OCCN*)OC(=O)CCCCCCCCCCCCCCCCC; maleimide = Maleimide, used for thiol-reactive attachment of PEG to a Cys (thioether bond)

B1: V8C16-3.4 kDa DPSE-PEG (peptide)
peptide: HVEGTFTSDC([maleimide-PEG 3.4 kDa-DSPE])SSYLEGQAAKEFIAWLVKGRG
B2: V8C38-3.4 kDa DPSE-PEG (peptide)
peptide: HVEGTFTSDVSSYLEGQAAKEFIAWLVKGRGC([maleimide-PEG 3.4 kDa-DSPE])
B3: V8E22C16-40 kDa PEG (peptide)
peptide: HVEGTFTSDC([maleimide-PEG 40 kDa branched])SSYLEEQAAKEFIAWLVKGRG
B4: V8C38-40 kDa PEG (peptide)
peptide: HVEGTFTSDVSSYLEGQAAKEFIAWLVKGRGC([maleimide-PEG 40 kDa branched])

target: human GLP-1 receptor (human, UniProt P43220 24-463); experiment: cell-based or functional assay

Binder | in vitro potency (EC50) in the CRE-BLAM reporter assay on HEK-293 cells expressing the human GLP-1 receptor, relative to V8GLP-1 equal to 100% [%]
B1 | 4
B2 | 18
B3 | 0.7
B4 | 3
